Laboratory results from the domain aggregation screens of Martell et al. (2025).

Test: soluble fraction after stress (log2 fold change); higher = more stays soluble; pooled small domains, quantitative proteomics
Settings: stress: pH 4
In short: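 Pooled custom libraries of small protein domains were stressed at pH 4 and then measured by high-throughput quantitative proteomics. The fold change in the amount of each domain that stays soluble after the acid stress serves as a measure of aggregation propensity. Fold changes are given on a log2 scale, and higher values mean more of the domain stayed soluble.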

Sequence	soluble fraction (log2)
HMQKLKINKYKDPKGEIRYYIASTIRNGNKSSTHNLLSLGKHSDLLKEHSDVEAYLKERLNEAMESGI	0.307
HMPLQYRLTVQPTPTNARVRLVNSAFTYRPGVALPPGSYIVEVSSSGYGAKRQAVQIADGDVTVPVELEKI	0.138
HMENKIIKNAAHATLKVKKDAGIEITTELIREAVILFHRIYSPNDNPNINWERIINELESHYT	-0.993
HMTYTMVAYGSQGDAVRQLQSELNRHGYQLDEDGVFGKKTRAAVRDYQKKNSLRLDGIAGDETWGSLLA	-0.522
HMKFIPPSLEEARAYFVEKGSSEPEAEKFVNHFDSIGWKVGRARTPMKKWKSAANNWIANNREWNQ	-0.166
HMDGEINPYTGREYVTNSVRMHPRRIGYVQVYSRKDHKWTDMTEWAFLGEQERKKVLLGKAYEPPVYL	0.0599
HMYYNQGILKSGASVYGEPGITSSHRLEIPSGSFVDIVQEKDEWVYYEKNHVNHGWVLRENIYIPSL	0.23
HMVQMNMLELQEEMQRDRSWIIKHLFQDEYFRRKIAKFSQFPINDSGKYLFHRKSMLKFLNDYAEEIVER	-1.46
HMQNPYDTLGVSRDSTDAEIKKAYRKLAMEHHPDKGGDSQRFAEINNAYDNIKDMSSRQNFENDPSNFQ	0.186
HMTDLNDTQIKILELLSADASLSAAKMAGQLGIAGRNVEANIKKLKEKGILIRHGSPKSGYWEIVN	0.0328
HMTGTKEQQVVMLNNILQKQLQAFELQGKRDYPMVTMKNMYNTLSKMVENAGLQTVESYFVDPIKGQQM	-0.266
HMGGTFLVRILDPALNIRAQPSLTARINGVIRDKSVYTIVATSFEPKTQITWGKLKSGAGWISIGSKYVKK	0.0406
HMGPRKAGSEATRQKILDAAEILFAERGFHSVSVRDITTEAGVDVALINYHFGSKQLLFETVFMRR	-0.472
HMGVDKLTPREREVLALMAQGASNREIEGKLVLTAGAVSKHVANVFMKLGFSPEDENRRVKAVLAWLRTK	0.225
HMFDLKKIYGTILDETKSSLLLSTDDGREVQIIKTDGTEVLASGLGVYVEVAYRDETPDGYPIALTI	-0.298
HMSASTGTVSYKSGATTVWNSPSWHQVKRYVTFGDTVQLLGKTVDQNGATWYKVGDNQWIPELYLNVAG	-0.486
HMFGNTGETSGTGVAFTRSPVDGENKIFGEFLVNAQGEDVVAGIRTPQPISEMEQAFPEVYSKFESVAEIL	-0.305
HMQSVPELDQQFKIAIENNDFIKLAQLKEQGYHPSKEVMQSLSNTTPNNTIIAVQKIFGLKA	-0.185
HMPDGTATATASVNVRSGASTLSPVLGVLRVGESIGVTGQANGGWVPVNYNGRAGYVYAAYLSFD	-0.0669
HMSEQVTMIDVEGKTETEAKKALEDLGLKVEITYESADAAAGTVIGQDVKAGSTVSEGSRVTLTVSGQ	-0.211
HMPGLITLEAAKTTALNHAKLTADQVTFVKQKLDRDDGRQVYEIEFYTSDYKEYDYEIDAVSGLILEVDYD	-0.33
HMAVENTGLSKRELEILQMMARGMSNQEIGDALFISLSTVKTHVASIFSKLQAVRRTQAVGIAKSLKII	-0.367
HMPSSQQVMRRLATVGPDKTLEELQRQHDAHLRKYGEFNDFRGERQQMRQEMERIKEAKQGTGPYAHLMG	-0.0742
HMTHFRTDERRREILSTIEADGRVSVSEIASRFDVSPVTIRSDLNYLAIQGKLKRVRGGAVLLDH	0.275
HMDPLASLTPREREVLSLMAQGLSNLAVAERLVVSAGAVEKHISSIFTKLDLAPSEHEHRRVLAVLRYVAG	-2.09

Sequence	soluble fraction (log2)
HMLPVFNYQVYRTHGLIYVYAKDNDSFDQIARSMGFKAKQLMKFNEVPEDFPLQAGDIVYLEKKKK	-0.368
HMHESLAEVAARKLRALIVTGELAPGERVTEAGLTDLLEISRTPAREAIRILSSEGLLVVFPNRGAEVV	-0.815
HMNLNIGNNIKNIRKSKNMTQTDFAELMGLSRSYIGDLENNRSNPSIKTLEAIARALDVPIVALIN	-0.726
HMGTTKGVVDVTVPNGRASQHVKLVVIDDDGGRVVYDGTNAPGDRIVKSVSGSGNVRVQIYLNNALVQEQS	-0.306
HMKYSNDEVERDLYVRGVIYQIGDLVENKLDGTSGEVVRRGPNYVQYTDGENFYKAFLSALQEQK	-1.04
HMVRSLESESVYDRQRAYEIAYQLRTEERPYSFIATQLNKAGLRPQKAARYEWYSVQELLRSA	≥ 0.43
HMEVKRANRKERFLEALPYQFSRQDYLNIADKNKIPHKTAEGYITKFVDAGLIHREAHNNYTNPTKA	0.045
HMKNDNIHMMASKINGIALEVGVLTPGMHPKNDLSEGEVGYIVTNLKTTREAKVGDTVTLAKKPAATPLPG	0.187
HMEPADALVAALVARGVSPSTARITVKQYPATRIQPQLEVFDYLVAQKDPKVSRNPPGFLLSAIRGEYA	0.0562
HMIDDPTAVILRLVSEKQVIRRDDVVKALSVTPQKAYRLLKTMTTGGLLTRSGARRTTVYGLPDARER	0.22
HMHDRRSGKVKWYSDRKGYGFIDLDGGEVFIHRSALIAFGALRLQAEDIITITVRETDRGLVVDQLFGIER	-1.63
HMKEEVEILGGKATIYTNDYGVWQFRLWLTTDNKYVRKSLRTKVKDYAITEGEKLYIQIRSDIEKGIKYY	-0.077
HMNKEKLLEMFESMSIIIVQSLEEKEQTEDRIETELFNEAKTPRYSTLTKQDIQSVIRNILITVGV	-0.959
HMNSNTIIINDIMTKIGKEVKNFTEIYSIILKALAEHGEEYVRTNTEYALKNFTGNFDIFLEQLLLK	-0.219
HMYLPGERMRIKITALGSNPKQGVGYLPDGMMVVVDEAATLVGRFVEIEFVKFLQTNSGRMMFAKVAT	-0.02
HMGTVISVDKARSIALAKVPGASANDIRIHLDRDDGRQIYEGEIYYNRMEYEFEIDASTGTIIEWSAEHW	0.00283
HMTKQEYLNQLKNELVKQGVADAEDVVTEYEQHFAFKLADGFGEEEIAKKLGDPAAIASQFVG	-1.16
HMKGTSIELIVPQDIAGLRLDQVLAKLLPQWSRSRLQSWINEKHITVNGQTTTAKQKLWGNETIQIIPPI	-0.0718
HMVPEMIRDVISKSIRDMGVLPDHMQINERIALIQSLKKQQILGIKGAVAETARQLGISVPTVYRYMKKG	-0.125
HMLDVNLIFSRPGFSLSAAFTLHAGGITVLRGDSGSGKTTLADLLSGAIAPQKGRILSDGDIWFDAASGIN	-0.163
HMAVSVPDVMGLTYEEAYNKITAEGLLVNRLESYTGLVEKGRVISQLPVGGEPAAKGSTVNVNVSL	-0.139
HMATPIAGTKYTLNNTPVYGTEKGPSIGKRSGIYYTWDATVRNGRIRMTNSPARVGVPWQVSFWVEVNKL	-0.195
HMIHQPNNETTRNLIAGVVKKSLSVWETRVQVDGVDVTTAKDNLAEVHINIRYRLRHNQTPASLGLRLNLG	-0.15
HMELNKNDLKIIKNISHIYPYFTPVKILQLILSKKFKTIDYNKILKSTSILTTDRSHLYYILNN	0.22
HMAMDVKEVLLPGVGLRYEFDNSDGDRIGVIAKRSGDFEVVRYTAADRDAAQPMFRLTDEEADALAQILGA	-0.487

Sequence	soluble fraction (log2)
HMATNVLEISTRNKNILIQDSLNLVESFYSKSDNQYWYKLVFKTKDDLNKFLQEVSEDENTITYKTSSI	-0.194
HMIENMQEYVRHIRAAVSDRLDLTREVEDDEIREVISQIVAEESRQNYLSLGERQTVIETVFNSMR	-2.17
HMIAVIKPSATAEQKAGLVDWIRGQGIDVHISEGHDYTVLGLIGDTSKIDMDLIASLDIVDSVKRVA	-0.168
HMPHFFISTSDVNQDIITVSDKENFHHIARVLRSKVGETLLLVDENRTQYKVVIQNIDSKSITTKVVETLK	-0.697
HMDRKFFYEDQYQDYLGEELKVSFFDTDNKKTVRGTLSEVTPHGIKINLEQETQEIPFSSIIQANLI	-0.44
HMSDVVFRINANGLNVSGLANGERVSVYDTTGKLVTTAVSTQDNGTLNLPLKQSGGIYIARTQSGVSFKFT	0.108
HMGTGELLVHVIGAVHSPGVVRLPTGARVVDAIDAAGGAREDAQTEQLNLARLVDDGEQVRVPVVGESVD	0.00081
HMDLDSGVAVLRTLMSQHNLQTDDFQNEIGGKSMVSMILNGTRKLSKNHIQALSGRFNLSPALFF	-0.494
HMLNVNDVIARNVRAARERKKLTLDGAAELTGVSRSMLAQIEKGEVNPTISVVWKIANGFKVSFTSLVEPQ	-0.0104
HMKAPPLTDREKEILRWVAAGLQNKEIAHKLGISLATVRNHIHNILEKLDVHSKLEAVSLAFRQGWVS	-0.133
HMGDFVIVPDLIGKTIEEFDSELNELNLKYIISDSGNYNPDFKINSVLDQLPNANSKVKGGRKIYITLNAS	-1.48
HMGHTVHAVPEAADRQRLDVFVGNLHPTISRAYIQKLSKEDQILVNGKPEKAGFKLRTGHSVSVPDMSE	0.177
HMAGFGDSLEKMSDAVEALKLLMSTEDARNDQNIQKIARELKDVFNKYRTHLRKSYPDQYDRIKSTL	-0.62
HMEKKDTYTVKNGDSLWGIARTELGDGGRFREIYTLNADTIEAEAKKRGRSSSSEGHWIYPGSVLRLP	-0.325
HMESAESRVDLIGMIGEAITDLRPAGTAQFGEERIDVVSESEWITEGSTVKVVSAEGYRHVVRVME	-1.01
HMNTGTTISYSDFRDRVASGTVKEVQISDDRITGVLKNDETFNTVPVGNDSGLTKLLDDNGVTYSGTP	0.212
HMSSGTAYATDAVNVRSGPGTSYTVLGYLSRGEKVTITGTVSNGWTQIQLPGNRLGYVSSAYLSASYPS	-0.115
HMGITDHIYQDLKKRLENGNYPAGTRFPSESTLADEFSVNKMTMNKIVSMLAEQGYLIRGNRGAGTRVAEN	-0.0244
HMSVLEHVSGNVRRLRLQAGLSQEALARAASVSRRMLVGIESGDVNVSLSTLDRIAAALGVLFPDLVQAP	-0.392
HMPGVTTQLHRLNGTEETYIIKRGDGVLEIDGEKSELQLGDAIIIPAGASQKISNIGDEDLE	-0.229
HMQITDTEAIATTLDEIIAANPKEWERLKAGQEQLVKFFVGQVMRVTKGRANPQVVNDLLKERL	0.186
HMNNKVAVKSGYYFEIFNKEEIPTTLAKTKQKVKINNIQYDLYQGMSLDDERKIDDMFGDRMGYSIDDY	-1.9
HMNAKVVAPIPGTVLSIDIKVGDVIKIGDRLLVLEAMKMENNIASEKSGTVTAVHVKVGQQVLQNELMIEL	-1.2
HMKEKLGEFENVFLSVDELQKLKSKLGAETESYIERLSNYIASSGKKYKSHYATILSWTQKDTK	-0.644
HMVSGVMAQQAIAVLVQQEDKHAPLSDQALAERLQVQGIDISRRTVAKYRQLLQIPSAATRR	-0.0405
